# Assay results published in patent US20230094463A1, “ANTIBODIES THAT DISRUPT THE INTERACTION OF GAL3 AND INSULIN RECEPTOR OR INTEGRINS AND METHODS OF USE THEREOF” (TrueBinding, Inc., priority 2019, published 2023).
# B1: TB001: Gal3-targeted Gal3-INSR blocking anti-Gal3 antibody; IMT001-4 used with human IgG4 isotype control (antibody, V domains shown)
# VH: QVQLVQSGSELKKPGASVKVSCKASGYTFTNYGMNWVRQAPGQGLKWMGWINTNTGEPTYVEEFTGRFVFSLETSVSTAYLQISSLKAEDTAVYFCAPYDNFFAYWGQGTTVTVSS
# VL: DIVLTQSPLSLPVTPGEPASISCRSSKSLLYKDGKTYLNWFLQKPGQSPQLLIYLMSTHASGVPDRFSGSGSGTDFTLKISRVEAEDVGVYYCQQLVDYPLTFGGGTKLEIK
# Columns and labels:
# [1] = system: HFD-fed Db/Db (Bks-Db) mice; test: HFD-fed Db/Db mouse model of advanced type II diabetes
# Description: In order to investigate the effect of therapeutic anti-GAL-3 antibodies on a severe case of type II diabetes, a mouse model using High Fat Diet (HFD)-fed Db/Db mice was implemented. Four-weeks-old male Bks-Db mice (000642) obtained from Jackson lab were fed with 60% kcal HFD (Research Diet, 12492i) for eight weeks. Control animals (male C57BL6/J (000662), Jackson lab) were fed normal chow diet. […] Animals were randomized based on the body composition measured by employing EchoMRI-500™ (EchoMRI). […] Wild type animals were used as a control (Healthy) group. The animals were dosed for twelve weeks. […] The fasting blood glucose was measured as described in Example 15. Briefly, the mice were fasted for 4-6 hours in clean cages with water and no food. Blood from the tail was diluted 2.5 times before using HemoCue Glucose 201 Analyzer and cuvettes (Mercedes Scientific 110706) to measure the blood glucose level.
# [2] = system: DSS-induced IBD C57BL/6J mice; test: DSS mouse model of chronic inflammatory bowel disease; type: in vivo; conditions: 3% DSS mice, 10 mg/kg or 1 mg/kg
# Description: A mouse model of chronic inflammatory bowel disease was implemented to study the effect of Gal-3 antibodies. […] Mice were allowed to rest for one week before initiating the treatment.
# Mice were randomized into the four treatment groups: no dextran sulfate sodium salt (DSS), 3% DSS in water+PBS, 3% DSS+mTB001 (10 mg/kg), 3% DSS+mTB001 (1 mg/kg). DSS water mixture was given for five consecutive days followed by seven days of normal water for a total of three DSS cycles and two normal water cycles. Body weight, stool consistency, gross bleeding score, and Hemoccult score (Fisher, SK-61130) were monitored daily. At necropsy, blood, colon, jejunum, ileum, duodenum, and spleen were preserved and flash frozen. Plasma Inflammatory cytokines were measured using Multi-spot Assay Systems (MSD) Proinflammatory Panel 1 (mouse) kit (MSD, K15048D). RT-qPCR was performed on frozen colon samples. Briefly, the colon tissue was disrupted using Qiazol lysis buffer (Qiagen, 79306) and the Qiagen Tissue Lyser II (Qiagen, 85300). RNA was extracted using RNeasy mini kit (Qiagen, 74104). cDNA was synthesized with iScript Reverse Transcription Supermix (BioRad, 1708841) at BioRad C1000 touch thermal cycler (BioRad, 1851138). […]
# [3] = molecular target: T1, Gal3 peptides (SEQ ID NOs: 3-26) (Homo sapiens, UniProt P17931); test: Gal3 peptide library binding ELISA (epitope mapping)
# T1 construct: a library of 24 amino acid peptides representing portions of Gal3; purchased LifeTein custom order
molecule,measurement,setting,value
B1,change in levels of fasting blood glucose,[1]; compared to PBS-treated groups,lack of change
same,survival,[1]; dosed once weekly for twelve weeks,significantly prolonged survival
same,DSS-induced reduction in the colon length,[2],restored
same,DSS-induced inflammation by circulating levels of IFN-gamma,[2]; plasma,reduced DSS-induced inflammation
same,binding to Gal3 Peptide 5,[3]; Peptide 5 (SEQ ID NO: 7),bind
same,binding to Gal3 Peptide 6,"[3]; Peptide 6 (SEQ ID NO: 8), amino acids 51-70 of Gal3, listed as IMT001 (TB001)",bind and bound
